Data on four molecules can be found in patent US20200024330A1.

Assay in all cases: cell-based or functional assay
Assay [1] concerns the target Env of the clade AE HIV-1 pseudoviruses of the cross-clade 162-pseudovirus panel (n = 10).
The target in assay [2] is HIV-1 Env of isolate 92WR009 (HIV-1).
For assay [3], the target named is HIV-1 JRCSF envelope glycoprotein (Env) (HIV-1) (UniProt P20871).
In assay [4] the target is HIV-1 Env of isolate 92UG037 (HIV-1).
The target of assay [5] is HIV-1 Env of isolate MGRM-A-002 (HIV-1).
For assay [6], the target named is HIV-1 Env of isolate MGRM-A-004 (HIV-1).
The target in assay [7] is HIV-1 93IN905 envelope glycoprotein (Env) (HIV-1).
The target of assay [8] is HIV-1 Env of isolate CMU02 (HIV-1).
For assay [9], the target named is HIV-1 Env of isolate VLGCA1 (HIV-1).
The target in assay [10] is HIV-1 Env of isolate 92UG031 (HIV-1).
For assay [11], the target named is HIV-1 94UG103 envelope glycoprotein (Env) (HIV-1).
Assay [12] addresses HIV-1 Env of isolate MGRM-A-007 (HIV-1).
The target of assay [13] is HIV-1 Env of isolate MGRM-A-010 (HIV-1).
Assay [14] deals with HIV-1 Env of isolate MGRM-A-008 (HIV-1).
Assay [15] concerns the target HIV-1 Env of isolate MGRM-A-011 (HIV-1).
In assay [16] the target is HIV-1 Env of isolate MGRM-AE-003 (HIV-1).
In assay [17] the target is HIV-1 Env of isolate MGRM-A-005 (HIV-1).
Assay [18] concerns the target HIV-1 APV13 envelope glycoprotein (Env) (HIV-1).
Assay [19] has as its target HIV-1 JR-CSF Env G324A (HIV-1 isolate JR-CSF) (UniProt P20871).
For assay [20], the target named is HIV-1 JRFL envelope glycoprotein (Env) (HIV-1).
For assay [21], the target named is HIV-1 MGRM-C-027 envelope glycoprotein (Env) (HIV-1).
Assay [22] addresses HIV-1 Env of isolate 94UG103 (HIV-1).
Assay [23] concerns the target HIV-1 Env of isolate MGRM-A-006 (HIV-1).
Assay [24] deals with HIV-1 92RW020 envelope glycoprotein (Env) (HIV-1).
The target of assay [25] is HIV-1 Env of isolate 94KE105 (HIV-1).
In assay [26] the target is HIV-1 Env of isolate 92WR021 (HIV-1).
The target in assay [27] is HIV-1 Env of isolate MGRM-AE-001 (HIV-1).
Assay [28] concerns the target HIV-1 Env of isolate MGRM-A-009 (HIV-1).
For assay [29], the target named is HIV-1 Env of isolate MGRM-A-001 (HIV-1).
Assay [30] concerns the target HIV-1 Env of isolate 92WR026 (HIV-1).
In assay [31] the target is HIV-1 NL43 envelope glycoprotein (Env) (HIV-1).
In assay [32] the target is HIV-1 Env of isolate 92RW008 (HIV-1).
The target of assay [33] is HIV-1 Env of isolate MGRM-AE-002 (HIV-1).
For assay [34], the target named is HIV-1 Env of isolate MGRM-A-003 (HIV-1).
The target in assay [35] is HIV-1 Env of isolate MGRM-A-014 (HIV-1).
In assay [36] the target is HIV-1 Env of isolate 93WR029 (HIV-1).
The target of assay [37] is HIV-1 92BR020 envelope glycoprotein (Env) (HIV-1).

B1: PGT-131 (antibody, V domains shown)
VH: QVQLQESGPGLVKPSETLSLTCTVSGDSINTGHHYWGWVRQVPGKGPEWIAHIHYNTAVLHNPALKSRVTISIFTLKNLITLSLSNVTAADTAVYFCVRSGGDILYYIEWQKPHWFYPWGPGILVTVSS
VL: QSALTQPPSASGSLGQSLTISCSGTGSDIGSWNFVSWYQQFPGRAPNLIIFEVNRRRSGVPDRFSGSKSGNTASLTVSGLRSEDEAEYFCSSLSGRWDIVFGGGTKVTVL
In [1], B1 had a Median IC50 against viruses neutralized with an IC50 <50 µg/ml of 0.08 µg/mL.

B2: PGT-125 (antibody, V domains shown)
VH: QSQLQESGPRLVEASETLSLTCNVSGESTGACTYFWGWVRQAPGKGLEWIGSLSHCQSFWGSGWTFHNPSLKSRLTISLDTPKNQVFLKLTSLTAADTATYYCARFDGEVLVYNHWPKPAWVDLWGRGIPVTVSS
VL: QSALTQPPSASGSPGQSITISCNGTATNFVSWYQQFPDKAPKLIIFGVDKRPPGVPDRFSGSRSGTTASLTVSRLQTDDEAVYYCGSLVGNWDVIFGGGTTLTVL
For B2, the IC50 (µg/mL), pseudovirus neutralization in assay [2] is 0.144 µg/mL; in assay [4], 0.005 µg/mL; in assay [5], 0.013 µg/mL; in assay [6], more than 50 µg/mL; in assay [8], more than 50 µg/mL; in assay [9], 0.078 µg/mL. Also, the IC50 (µg/mL), pseudovirus neutralization is more than 50 µg/mL in assay [10]; more than 50 µg/mL in assay [12]; 0.004 µg/mL in [13]; more than 50 µg/mL in [14]; more than 50 µg/mL in assay [15]; 0.092 µg/mL in [16]. Also, the IC50 (µg/mL), pseudovirus neutralization in assay [17] is more than 50 µg/mL; in [22] it was 0.008 µg/mL; in assay [23], more than 50 µg/mL; in assay [25], 0.004 µg/mL; in assay [26] it was 0.005 µg/mL; in [27] it was 2.95 µg/mL. Moreover, the IC50 (µg/mL), pseudovirus neutralization is 0.009 µg/mL in [28]; 12.4 µg/mL in assay [29]; 0.007 µg/mL in assay [30]; 0.004 µg/mL in [32]; more than 50 µg/mL in [33]; more than 50 µg/mL in assay [34]. The IC50 (µg/mL), pseudovirus neutralization was 13.9 µg/mL in assay [35] and more than 50 µg/mL in assay [36]. Moreover, the IC50 neutralization was 6 ng/mL in assay [3]; 0.0137 µg/mL in assay [7]; 0.0124 µg/mL in [11]; 0.0128 µg/mL in assay [18]; 0.0156 µg/mL in assay [20]; more than 10000 ng/mL in assay [21]. For the same molecule, the IC50 neutralization was 2.8 ng/mL in assay [24], more than 10 µg/mL in assay [31] and 0.0214 µg/mL in assay [37]. In assay [1], the Median IC50 against viruses neutralized with an IC50 <50 µg/ml was found to be 0.03 µg/mL. Further, the Fold IC50 increase relative to wild-type in assay [19] was found to be 1.7 fold.

B3: PGT-127 (antibody, V domains shown)
VH: QPQLQESGPGLVEASETLSLTCTVSGDSTGRCNYFWGWVRQPPGKGLEWIGSLSHCRSYYNTDWTYHNPSLKSRLTISLDTPKNQVFLRLTSVTAADTATYYCARFGGEVLVYRDWPKPAWVDLWGRGTLVVTVS
VL: QSALTQPPSASGSPGQSITISCTGTSNNFVSWYQQYPGKAPKLVIYEVNKRPSGVPDRFSGSKSGSTASLTVSGLQADDEGVYYCSSLVGNWDVIFGGGTKLTVL
For B3, the IC50 (µg/mL), pseudovirus neutralization is more than 50 µg/mL in assay [2]; 0.014 µg/mL in [4]; 9.42 µg/mL in [5]; more than 50 µg/mL in [6]; more than 50 µg/mL in [8]; more than 50 µg/mL in [9]. In addition, the IC50 (µg/mL), pseudovirus neutralization in assay [10] is more than 50 µg/mL; in [12], more than 50 µg/mL; in assay [13], 0.017 µg/mL; in assay [14], more than 50 µg/mL; in assay [15], more than 50 µg/mL; in [16] it was more than 50 µg/mL. Also, the IC50 (µg/mL), pseudovirus neutralization in assay [17] is more than 50 µg/mL; in assay [22], 0.017 µg/mL; in assay [23] it was more than 50 µg/mL; in assay [25], 0.023 µg/mL; in [26], 0.011 µg/mL; in assay [27], more than 50 µg/mL. The IC50 (µg/mL), pseudovirus neutralization in [28] is 0.013 µg/mL; in assay [29] it was more than 50 µg/mL; in [30] it was 0.024 µg/mL; in [32] it was 0.012 µg/mL; in assay [33] it was more than 50 µg/mL; in assay [34], more than 50 µg/mL. The IC50 (µg/mL), pseudovirus neutralization is 0.04 µg/mL in assay [35] and more than 50 µg/mL in assay [36].

B4: PGT-130 (antibody, V domains shown)
VH: QVQLQESGPGLVKPAETLSLTCSVSGESINTGHYYWGWVRQVPGKGLEWIGHIHYTTAVLHNPSLKSRLTIKIYTLRNQITLRLSNVTAADTAVYHCVRSGGDILYYYEWQKPHWFSPWGPGIHVTVSS
VL: QSALTQPPSASGSLGQSVTISCNGTSSDIGGWNFVSWYQQFPGRAPRLIIFEVNKRPSGVPGRFSGSKSGNSASLTVSGLQSDDEGQYFCSSLFGRWDVVFGGGTKLTVL
As for B4, the IC50 neutralization in [3] turned out to be 8.9 ng/mL; in [7], 0.0182 µg/mL; in [11], 0.635 µg/mL; in assay [18], 0.0345 µg/mL; in assay [20], 0.0346 µg/mL; in assay [21], 5.2 ng/mL. In addition, the IC50 neutralization in assay [24] was 14 ng/mL; in assay [31], more than 10 µg/mL; in [37] it was 1.12 µg/mL. For the same molecule, the Median IC50 against viruses neutralized with an IC50 <50 µg/ml in assay [1] worked out at 0.17 µg/mL. In assay [19], this molecule registered a Fold IC50 increase relative to wild-type of more than 50 fold.
